Results reported in publication PMC11317129, “Bacterial histone HBb from Bdellovibrio bacteriovorus compacts DNA by bending” (Nucleic Acids Research, 2023).

Tests used:
[1] = target: the molecule itself; assay: SEC-MALS; purified HBb in solution; 1260 Infinity II HPLC with miniDAWN TREOS and Optilab T-rEX detectors
HMfB = HMfB (Methanothermus fervidus, UniProt P19267 1-69); assay: MST; unit printed as M (symbol lost); 20 nM in HMfB titration; MST: 20 mM Tris pH 8.0, 150 mM NaCl, 2.5 mM 2-mercaptoethanol, 37 C 10 min (HMfB RT 5 min); EMSA 80 bp: 25 mM Tris pH 8.0, 50 mM NaCl, 50 mM KCl, 37 C; ladder EMSA/MNase/circularization: 50 mM Tris pH 7.0, 75 mM KCl, RT; settings: protein: recombinant; tags: N-terminal His6 (vector pET28a); chain copies: 4; label: 5' Cy5 on strand 1; blunt
HMfB, sequence (P19267 whole entry): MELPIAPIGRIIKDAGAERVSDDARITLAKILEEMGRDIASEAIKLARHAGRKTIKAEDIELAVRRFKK

HBb (Bd0055) [2] = target: T1, HBb (Bd0055) (Bdellovibrio bacteriovorus HD100, UniProt Q6MRM1 1-64); assay: MST; unit printed as M (symbol lost); text says lower micromolar; 10 nM DNA; MST: 20 mM Tris pH 8.0, 150 mM NaCl, 2.5 mM 2-mercaptoethanol, 37 C 10 min (HMfB RT 5 min); EMSA 80 bp: 25 mM Tris pH 8.0, 50 mM NaCl, 50 mM KCl, 37 C; ladder EMSA/MNase/circularization: 50 mM Tris pH 7.0, 75 mM KCl, RT; settings: protein: recombinant; tags: N-terminal His6 (vector pETHis1a); chain copies: 2; label: 5' Cy5 on strand 1; blunt
T1 sequence: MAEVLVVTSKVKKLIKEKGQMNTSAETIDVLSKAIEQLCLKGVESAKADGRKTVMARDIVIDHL

HBb (Bd0055) [3] = target: T1, HBb (Bd0055); assay: MST; unit printed as M (symbol lost); 10 nM DNA; MST: 20 mM Tris pH 8.0, 150 mM NaCl, 2.5 mM 2-mercaptoethanol, 37 C 10 min (HMfB RT 5 min); EMSA 80 bp: 25 mM Tris pH 8.0, 50 mM NaCl, 50 mM KCl, 37 C; ladder EMSA/MNase/circularization: 50 mM Tris pH 7.0, 75 mM KCl, RT; settings: protein: recombinant; tags: N-terminal His6 (vector pETHis1a); chain copies: 2; label: 5' Cy5 on strand 1; blunt

B1: bacterial histone HBb (Histone of B. bacteriovorus) (natural protein, Bdellovibrio bacteriovorus)
chain: T1 sequence
notes: theoretical molecular weight 7 kDa; Homodimer by SEC-MALS and in the crystals; also called Bd0055
B1 was tested. Which “stoichiometry N” value [1] did it give?
Its value is 2.

B2: 80 bp DNA [Cy5] (dsDNA)
DNA 1: CCGTACTGTCGTCTGCGGCCTTTGATTATCAATTAAAGCGTTCTACGGCGTTTTTGATCGCTCAACGTGCGGAGCTAGAT
DNA 2: ATCTAGCTCCGCACGTTGAGCGATCAAAAACGCCGTAGAACGCTTTAATTGATAATCAAAGGCCGCAGACGACAGTACGG
Which Kd (HMfB) does the source give for B2 here?
The Kd was 0.83 ± 0.27 µM.

And the Kd (HBb (Bd0055) [2])?
Its Kd is 4.84 ± 0.97 µM.

B3: 80 bp-GC50 [Cy5] (dsDNA)
DNA 1: TTAAAGCCCGTTAAAGCCCGTTAAAGCCCGTTAAAGCCCGTTAAAGCCCGTTAAAGCCCGTTAAAGCCCGTTAAAGCCCG
DNA 2: CGGGCTTTAACGGGCTTTAACGGGCTTTAACGGGCTTTAACGGGCTTTAACGGGCTTTAACGGGCTTTAACGGGCTTTAA
Which results are given for B3?
Kd (HMfB): 3.92 ± 1.16 µM; Kd (HBb (Bd0055) [3]): 11.1 ± 1.07 µM
